T1: hFcγRIIaH on hFcγRIIaH-expressing Jurkat cells (human, UniProt P12318 34-317)
T1 sequence (looked up): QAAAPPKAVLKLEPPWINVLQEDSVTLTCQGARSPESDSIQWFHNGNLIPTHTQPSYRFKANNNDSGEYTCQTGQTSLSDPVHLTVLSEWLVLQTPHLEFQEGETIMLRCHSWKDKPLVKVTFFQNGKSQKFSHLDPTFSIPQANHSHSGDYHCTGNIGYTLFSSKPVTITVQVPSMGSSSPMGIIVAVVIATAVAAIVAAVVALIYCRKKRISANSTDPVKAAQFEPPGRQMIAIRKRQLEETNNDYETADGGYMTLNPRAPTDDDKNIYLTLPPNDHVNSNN

T2: human FcγRIIa H extracellular domain (human, UniProt P12318 34-217)
T2 construct: extracellular domain; also called hFcγR IIa H
T2 sequence (looked up): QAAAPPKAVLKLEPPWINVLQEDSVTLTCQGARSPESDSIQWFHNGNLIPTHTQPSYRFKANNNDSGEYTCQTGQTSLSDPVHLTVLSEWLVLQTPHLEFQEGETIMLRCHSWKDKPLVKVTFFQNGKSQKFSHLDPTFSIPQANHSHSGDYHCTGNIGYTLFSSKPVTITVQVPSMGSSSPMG

T3: human FcγRIIa R extracellular domain (human, UniProt P12318 34-217)
T3 construct: extracellular domain; also called hFcγR IIa R
T3 sequence (looked up): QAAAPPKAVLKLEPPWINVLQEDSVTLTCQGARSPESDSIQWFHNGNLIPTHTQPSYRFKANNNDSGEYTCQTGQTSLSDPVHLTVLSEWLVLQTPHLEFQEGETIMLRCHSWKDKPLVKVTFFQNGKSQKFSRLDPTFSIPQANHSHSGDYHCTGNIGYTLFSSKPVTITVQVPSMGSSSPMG

T4: human FcγRIIb extracellular domain (human, UniProt P31994 43-217)
T4 construct: extracellular domain; also called hFcγR IIb
T4 sequence (looked up): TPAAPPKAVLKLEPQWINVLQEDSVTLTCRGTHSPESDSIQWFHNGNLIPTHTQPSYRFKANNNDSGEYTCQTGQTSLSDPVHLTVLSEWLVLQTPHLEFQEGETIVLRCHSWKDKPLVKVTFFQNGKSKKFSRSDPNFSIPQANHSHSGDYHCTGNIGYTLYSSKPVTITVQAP


Legend:
[1] = target: hFcγRIIIaV on hFcγRIIIaV-expressing Jurkat cells (human, UniProt P08637 17-254); assay: cell-based or functional assay
hFcγRIIIaV on hFcγRIIIaV-expressing Jurkat cells, sequence (P08637 17-254, form in doubt): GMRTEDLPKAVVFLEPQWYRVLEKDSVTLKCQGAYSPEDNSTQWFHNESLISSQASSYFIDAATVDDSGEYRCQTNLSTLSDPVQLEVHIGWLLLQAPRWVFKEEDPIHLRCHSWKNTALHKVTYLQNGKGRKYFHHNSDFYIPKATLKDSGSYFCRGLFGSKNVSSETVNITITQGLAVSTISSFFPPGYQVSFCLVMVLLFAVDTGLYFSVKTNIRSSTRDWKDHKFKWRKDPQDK

[2] = target: T1, hFcγRIIaH on hFcγRIIaH-expressing …; assay: cell-based or functional assay
[3] = target: T5, human FcγRIa extracellular domain (human, UniProt P12314 16-292); assay: SPR Biacore 8K+; KD of G1d divided by KD of this antibody;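 note: antibodies captured on an anti-Fab-kappa streptavidin chip, soluble FcγR ectodomains flowed over, KD by steady-state fit for FcγRIIb and Langmuir kinetic model for the other receptors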
T5 construct: extracellular domain; also called hFcγR Ia; hFcγRIa
T5 sequence (P12314 16-292): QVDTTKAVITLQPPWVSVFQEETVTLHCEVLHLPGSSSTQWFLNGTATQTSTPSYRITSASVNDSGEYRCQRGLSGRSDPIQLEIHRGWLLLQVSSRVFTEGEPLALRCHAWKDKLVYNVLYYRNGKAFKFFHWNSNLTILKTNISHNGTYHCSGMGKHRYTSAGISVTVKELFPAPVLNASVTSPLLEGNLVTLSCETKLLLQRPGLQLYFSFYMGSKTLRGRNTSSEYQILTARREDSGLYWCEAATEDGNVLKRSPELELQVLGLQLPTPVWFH

[4] = target: T2, human FcγRIIa H extracellular domain; assay: as above
[5] = target: T3, human FcγRIIa R extracellular domain; assay: as above
[6] = target: T4, human FcγRIIb extracellular domain; assay: as above
[7] = target: T6, human FcγRIIIa F extracellular domain (human, UniProt P08637 17-208); assay: as above
T6 construct: extracellular domain; also called hFcγR IIIa F
T6 sequence (P08637 17-208): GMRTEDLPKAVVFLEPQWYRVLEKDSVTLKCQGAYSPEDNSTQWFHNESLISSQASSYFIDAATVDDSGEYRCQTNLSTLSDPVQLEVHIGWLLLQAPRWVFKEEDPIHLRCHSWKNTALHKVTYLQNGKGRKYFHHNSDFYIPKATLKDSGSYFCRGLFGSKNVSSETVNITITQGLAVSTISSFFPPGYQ

[8] = target: T7, human FcγRIIIa V extracellular domain (human, UniProt P08637 17-208); assay: as above
T7 construct: extracellular domain; also called hFcγR IIIa V
T7 sequence (P08637 17-208 F176V limits assumed): as the sequence (P08637 17-208) above, with F160V counted along it

[9] = target: T2, human FcγRIIa H extracellular domain; assay: SPR Biacore 8K+; KD for FcγRIIb divided by KD for this FcγR;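 note: antibodies captured on an anti-human Fab kappa SA chip with soluble human FcγR ectodomains flowed over, FcγRIIb KD from steady-state fit, other FcγR KD from Langmuir model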
Method: (§1) The interaction between the produced antibodies and human FcγRs was analyzed using Biacore 8K+ by the method below. For the running buffer, 50 mM Na-Phosphate, 150 mM NaCl, and 0.05% Tween20 (pH 7.4) was used, and measurement was performed at 25° C. The sensor chip used was a Series S SA chip (GE Healthcare) onto which CaptureSelect Human Fab-kappa Kinetics Biotin Conjugate (Thermo Fisher Scientific) was immobilized. An antibody of interest was captured onto this chip, and each FcγR diluted with the running buffer was allowed to interact with it. The chip was regenerated using 10 mM Glycine-HCl (pH 1.5), and repeatedly used to capture antibodies and perform measurement. The dissociation constants KD (mol/L) of each antibody for FcγRs were calculated using Biacore Insight Evaluation Software, with a steady state affinity model for the dissociation constant for FcγRIIb and a 1:1 Langmuir binding model for the dissociation constants for the other FcγRs (Table 48).

[10] = target: T3, human FcγRIIa R extracellular domain; assay: as above
Method: as §1

[11] = target: T6, human FcγRIIIa F extracellular domain; assay: as above
Method: as §1

[12] = target: T7, human FcγRIIIa V extracellular domain; assay: as above
Method: as §1

[13] = target: T5, human FcγRIa extracellular domain; assay: SPR Biacore 8K+, antibody captured, FcγR as analyte, 1:1 Langmuir model;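 note: antibodies captured on a streptavidin chip through a biotinylated anti-human Fab kappa reagent, with FcγR extracellular domains injected in pH 7.4 phosphate buffer at 25 °C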
Method: as §1

[14] = target: T2, human FcγRIIa H extracellular domain; assay: as above
Method: as §1

[15] = target: T3, human FcγRIIa R extracellular domain; assay: as above
Method: as §1

[16] = target: T6, human FcγRIIIa F extracellular domain; assay: as above
Method: as §1

[17] = target: T7, human FcγRIIIa V extracellular domain; assay: as above
Method: as §1

[18] = target: T4, human FcγRIIb extracellular domain; assay: SPR Biacore 8K+, antibody captured, FcγR as analyte, steady state affinity model
[19] = target: T8, human C1q protein (Calbiochem) (human, UniProt P02745 23-245; P02746 28-253; P02747 29-245); assay: ELISA: antibody coated on the plate at the varied concentration, hC1q 3 µg/mL added, detected with HRP-conjugated anti-hC1q antibody, O.D (450-690nm)
T8 construct: bought; also called hC1q
T8 sequence (P02745 23-245 limits assumed, chain 1 of 3): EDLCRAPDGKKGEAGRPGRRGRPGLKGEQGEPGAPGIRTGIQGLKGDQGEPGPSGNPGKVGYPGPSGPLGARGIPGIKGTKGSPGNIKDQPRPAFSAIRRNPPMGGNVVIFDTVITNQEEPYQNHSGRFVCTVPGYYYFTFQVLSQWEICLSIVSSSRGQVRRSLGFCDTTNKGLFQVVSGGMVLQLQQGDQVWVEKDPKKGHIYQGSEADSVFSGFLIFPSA
T8 sequence (P02746 28-253 limits assumed, chain 2 of 3): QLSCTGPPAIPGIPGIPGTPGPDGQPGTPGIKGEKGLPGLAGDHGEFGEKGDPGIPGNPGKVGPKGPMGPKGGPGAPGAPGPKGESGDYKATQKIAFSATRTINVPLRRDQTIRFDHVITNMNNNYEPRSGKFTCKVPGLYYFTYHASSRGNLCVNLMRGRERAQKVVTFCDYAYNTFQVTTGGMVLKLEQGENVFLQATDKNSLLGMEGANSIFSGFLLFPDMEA
T8 sequence (P02747 29-245 limits assumed, chain 3 of 3): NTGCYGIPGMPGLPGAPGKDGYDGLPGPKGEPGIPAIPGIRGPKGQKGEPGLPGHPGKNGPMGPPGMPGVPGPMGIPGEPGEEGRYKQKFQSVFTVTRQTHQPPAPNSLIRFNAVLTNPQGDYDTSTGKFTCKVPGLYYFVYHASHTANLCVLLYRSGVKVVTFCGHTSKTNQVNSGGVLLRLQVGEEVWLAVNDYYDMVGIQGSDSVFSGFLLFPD
Method: The antigen used was a human C1q protein (hC1q).
First, a 96-well maxisorp plate (Thermo fisher) was coated at 4° C. overnight with 50 μL of solutions containing each antibody prepared at 30, 10, 3, 1, 0.3, 0.1, and 0.03 μg/mL in PBS. Each well of the plate was washed with Wash buffer to remove the antibody not bound to the plate, and then the wells were blocked with 200 μL of Blocking/dilution Buffer at room temperature for 2 hours or longer. After the Blocking/dilution Buffer was removed from each well, hC1q (Calbiochem) prepared such that the final concentration was 3 μg/mL in Blocking/dilution Buffer was added at 50 μL per well. The plate was then allowed to stand at room temperature for 1 hour to allow hC1q to bind to the antibody within each well. After washing with Wash Buffer, 50 μL of an HRP-conjugated anti-hC1q antibody (AbDSerotec) diluted with Blocking/dilution Buffer was added to each well, and the plate was incubated while standing for 1 hour. After washing with Wash Buffer, TMB single solution (Invitrogen) was added. The color development reaction of the solution in each well was stopped by addition of Stop Buffer, and then the developed color was measured by absorbance at 450 nm and 690 nm.

Binder	EC50 value (hFcγRIIIaV ADCC Reporter Bioassay, Hepa1-6/hEREG target cells) [1]	EC50 value (hFcγRIIaH ADCP Reporter Bioassay, Hepa1-6/hEREG target cells) [2]	Relative value to KD between G1d and hFcgRs [3]	Relative value to KD between G1d and hFcgRs [4]	Relative value to KD between G1d and hFcgRs [5]	Relative value to KD between G1d and hFcgRs [6]	Relative value to KD between G1d and hFcgRs [7]	Relative value to KD between G1d and hFcgRs [8]	A/I ratio (KD for FcγRIIb divided by KD for each FcγR) [9]	A/I ratio (KD for FcγRIIb divided by KD for each FcγR) [10]	A/I ratio (KD for FcγRIIb divided by KD for each FcγR) [11]	A/I ratio (KD for FcγRIIb divided by KD for each FcγR) [12]	Kd [13]	Kd [14]	Kd [15]	Kd [16]	Kd [17]	Kd [18]	binding result [19]
H240-Kn496/L73-k0//H240-Hl516/L73-k0 (antibody, human IgG1, kappa, also called EGL-ART11; ART11) heavy 1: QDQLVQSGAEVKKPGASVKVSCKASGFNIKDTYIQWVRQAPGQGLEWMGRIDPLRKQTKYREKFEGRVTITADTSTNTAYMELSSLRSEDTAVYYCVRSGREFDYWGQGTLVTVSSASTKGPSVFPLAPSSKSTSGGTAALGCLVKDYFPEPVTVSWNSGALTSGVHTFPAVLQSSGLYSLSSVVTVPSSSLGTQTYICNVNHKPSNTKVDKKVEPKSCDKTHTCPPCPAPEFQWGPMVFLFPPKPKDVLMISRTPEVTCVVVDVSDEEPEVKFNWYVDGVEVHNAKTKPREEQYNATYRVVSVLPVLHQDWLNGKEYKCKVSNKALPAPIEKTISKAKGQPREPQVCTLPPSRDELTKNQVSLWCLVKGFYPSDIAVEWESNGQPENNYKTTPPVLDSDGSFFLYSKLTVDKSRWQQGNVFSCSVMHEALHNHYTQKSLSLSP heavy 2: QDQLVQSGAEVKKPGASVKVSCKASGFNIKDTYIQWVRQAPGQGLEWMGRIDPLRKQTKYREKFEGRVTITADTSTNTAYMELSSLRSEDTAVYYCVRSGREFDYWGQGTLVTVSSASTKGPSVFPLAPSSKSTSGGTAALGCLVKDYFPEPVTVSWNSGALTSGVHTFPAVLQSSGLYSLSSVVTVPSSSLGTQTYICNVNHKPSNTKVDKKVEPKSCDKTHTCPPCPAPELLGGPSVFLFPPKPKDVLMISRTPEVTCVVVDVSHEEPEVKFNWYVDGVEVHNAKTKPREEQYNATYRVVSVLPVLHQDWLNGKEYKCKVSNDALPAPIEETISKAKGQPREPQVYTLPPSRCELTKNQVSLSCAVKGFYPSDIAVEWESNGQPENNYKTTPPVLDSDGSFFLVSKLTVDKSRWQQGNVFSCSVMHEALHNHYTQKSLSLSP light: DIQMTQSPSSLSASVGDRVTITCRASQDIHKYIAWYQQKPGQAPRLLIQYTSTLQPGVPSRFSGSGSGTDYTFTISSLQPEDIATYYCLQYEQLRTFGGGTKVEIKRTVAAPSVFIFPPSDEQLKSGTASVVCLLNNFYPREAKVQWKVDNALQSGNSQESVTEQDSKDSTYSLSSTLTLSKADYEKHKVYACEVTHQGLSSPVTKSFNRGEC	0.000413 µg/mL	0.0367 µg/mL	2.4	4.9	1.3	0.7	141	97.5	63.3	11.5	694	3970	0.0381 nM	231 nM	1270 nM	21 nM	3.67 nM	14600 nM	binds
H240-Kn494/L73-k0//H240-Hl514/L73-k0 (antibody, human IgG1, kappa, also called EGL-ART10; ART10) heavy 1: QDQLVQSGAEVKKPGASVKVSCKASGFNIKDTYIQWVRQAPGQGLEWMGRIDPLRKQTKYREKFEGRVTITADTSTNTAYMELSSLRSEDTAVYYCVRSGREFDYWGQGTLVTVSSASTKGPSVFPLAPSSKSTSGGTAALGCLVKDYFPEPVTVSWNSGALTSGVHTFPAVLQSSGLYSLSSVVTVPSSSLGTQTYICNVNHKPSNTKVDKKVEPKSCDKTHTCPPCPAPEFQWGPMVFLFPPKPKDVLMISRTPEVTCVVVDVSDEEPEVKFNWYVDGVEVHNAKTKPREEQYNATYRVVSVLPVLHQDWLNGKEYKCKVSNKALPAPEEKTISKAKGQPREPQVCTLPPSRDELTKNQVSLWCLVKGFYPSDIAVEWESNGQPENNYKTTPPVLDSDGSFFLYSKLTVDKSRWQQGNVFSCSVMHEALHNHYTQKSLSLSP heavy 2: QDQLVQSGAEVKKPGASVKVSCKASGFNIKDTYIQWVRQAPGQGLEWMGRIDPLRKQTKYREKFEGRVTITADTSTNTAYMELSSLRSEDTAVYYCVRSGREFDYWGQGTLVTVSSASTKGPSVFPLAPSSKSTSGGTAALGCLVKDYFPEPVTVSWNSGALTSGVHTFPAVLQSSGLYSLSSVVTVPSSSLGTQTYICNVNHKPSNTKVDKKVEPKSCDKTHTCPPCPAPELLGGPSVFLFPPKPKDVLMISRTPEVTCVVVDVSHEEPEVKFNWYVDGVEVHNAKTKPREEQYNATYRVVSVLPVLHQDWLNGKEYKCKVSNDALPAPEEETISKAKGQPREPQVYTLPPSRCELTKNQVSLSCAVKGFYPSDIAVEWESNGQPENNYKTTPPVLDSDGSFFLVSKLTVDKSRWQQGNVFSCSVMHEALHNHYTQKSLSLSP light: DIQMTQSPSSLSASVGDRVTITCRASQDIHKYIAWYQQKPGQAPRLLIQYTSTLQPGVPSRFSGSGSGTDYTFTISSLQPEDIATYYCLQYEQLRTFGGGTKVEIKRTVAAPSVFIFPPSDEQLKSGTASVVCLLNNFYPREAKVQWKVDNALQSGNSQESVTEQDSKDSTYSLSSTLTLSKADYEKHKVYACEVTHQGLSSPVTKSFNRGEC	0.000107 µg/mL	0.0419 µg/mL	3.4	2.7	1.5	1.4	1290	566	17.3	6.6	3160	11400	0.0267 nM	420 nM	1100 nM	2.29 nM	0.634 nM	7250 nM	binds
